According to paper doi:10.1101/871988:

Molecular target: recombinant human scavenger receptor B1 (SRB1) (human) (UniProt Q8WTV0)
Experiment: SPR

Sequence of UniProt Q8WTV0 (Q8WTV0 whole entry): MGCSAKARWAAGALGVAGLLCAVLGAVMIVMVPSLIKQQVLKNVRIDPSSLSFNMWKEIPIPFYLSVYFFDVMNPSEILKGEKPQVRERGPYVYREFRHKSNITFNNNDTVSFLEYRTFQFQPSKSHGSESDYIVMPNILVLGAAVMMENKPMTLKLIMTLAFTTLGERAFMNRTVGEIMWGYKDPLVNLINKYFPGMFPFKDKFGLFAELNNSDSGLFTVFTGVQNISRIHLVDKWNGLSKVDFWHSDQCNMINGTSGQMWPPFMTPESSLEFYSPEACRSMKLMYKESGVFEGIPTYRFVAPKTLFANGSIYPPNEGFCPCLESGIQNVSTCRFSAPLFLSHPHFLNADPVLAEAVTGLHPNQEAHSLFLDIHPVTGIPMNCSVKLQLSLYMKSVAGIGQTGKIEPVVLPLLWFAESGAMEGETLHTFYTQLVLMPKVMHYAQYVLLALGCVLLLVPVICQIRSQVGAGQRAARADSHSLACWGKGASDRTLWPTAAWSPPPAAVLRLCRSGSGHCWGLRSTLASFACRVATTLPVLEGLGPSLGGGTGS

| Substance | Kd |
| --- | --- |
| human high density lipoprotein (HDL) (from UniProt P02647 19-267) (complex) | 18.7 nM |
| recombinant dengue virus non-structural protein 1 (DENV NS1) (natural protein) | 47 nM |
